Starred links: 1 amine or outer side, 2 acyl side, 3 side chain; linkers in the order of their positions; H or OH if unused. Positions of bridges follow the written chain, without caps; N, C: chain ends. Non-standard residues stand in square brackets, D forms with d. *: point of attachment. FITC = O=C1OC2(c3ccc(O)cc3Oc3cc(O)ccc32)c2ccc(NC(=S)*)cc21; S7 = C[C@@](CCCCCC=[*:3])(N[*:1])C(=O)[*:2]; R8 = C=CCCCCCC[C@@](C)(N)C(=O)O; Cba = N[C@@H](CC1CCC1)C(=O)O; S5 = C=CCCC[C@](C)(N)C(=O)O; Ahx = NCCCCCC(=O)O
B1: 5FITC (peptide)
chain: {FITC-Ahx}-LTA[S7]EYWAQ[Cba][S7]SAA-NH2
modifications: staple 4-11
B2: 4FITC (peptide)
chain: {FITC-Ahx}-LTF[S7]EYWAQ[Cba][S7]SAA-NH2
modifications: bridge 4-11; not fully specified (bridges)
B3: cis-2FITC (ATSP-7041) (peptide)
chain: {FITC-Ahx}-LTF[R8]EYWAQ[Cba][S5]SAA-NH2
modifications: staple 4-11; also: cis alkene isomer
B4: trans-3FITC (ATSP-7041) (peptide)
chain: {FITC-Ahx}-LTF[R8]EYWAQ[Cba][S5]SAA-NH2
modifications: staple 4-11; also: trans alkene isomer

Experiments:
MDM2 (1–138) = target: T1, MDM2 (1–138) (UniProt Q00987 1-138); experiment: fluorescence polarisation; direct binding; 10 nM FITC-labelled peptide incubated with varying concentrations of protein (10 μM to 9 pM), FP read after 3 h; n = 3; conditions: both partners purified
T1 construct: MDM2, residues 1-138; the methods may stand in the ESI; also called Mouse double minute 2 homolog

MDMX (1–134) = target: T2, MDMX (1–134) (UniProt O15151 1-134); experiment: as above; conditions: both partners purified
T2 construct: MDMX, residues 1-134; the methods may stand in the ESI; also called Mouse double minute X homolog
T2 sequence (looked up): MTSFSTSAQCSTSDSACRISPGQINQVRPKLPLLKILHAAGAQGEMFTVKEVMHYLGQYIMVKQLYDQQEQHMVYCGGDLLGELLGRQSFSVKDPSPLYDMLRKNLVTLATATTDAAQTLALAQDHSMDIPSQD

T1 sequence (Q00987 1-138): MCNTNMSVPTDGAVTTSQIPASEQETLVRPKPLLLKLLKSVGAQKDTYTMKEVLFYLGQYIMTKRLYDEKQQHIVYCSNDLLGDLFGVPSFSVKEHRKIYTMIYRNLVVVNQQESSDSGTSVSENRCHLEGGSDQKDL

Row | Binder | Kd (MDM2 (1–138)) | Kd (MDMX (1–134))
1 | B1 | 3680 ± 151 nM | 1120 ± 252 nM
2 | B2 | 1.39 ± 0.08 nM | 203 ± 54 nM
3 | B3 |  | 8.42 ± 0.09 nM
4 | B4 |  | 7.86 ± 0.15 nM

From publication PMC11741006 (RSC Chemical Biology, 2025)
